Molecular target: linear tetra-ubiquitin (M1-linked Ub4) (Homo sapiens, UniProt P0CG47)
Assay: ITC

Kd: 90 nM
B1: HOIL-1 (protein)
chain: MDEKTKKAEEMALSLTRAVAGGDEQVAMKCAIWLAEQRVPLSVQLKPEVSPTQDIRLWVSVEDAQMHTVTIWLTVRPDMTVASLKDMVFLDYGFPPVLQQWVIGQRLARDQETLHSHGVRQNGDSAYLYLLSARNTSLNPQELQRERQLRMLEDLGFKDLTLQPRGPLEPGPPKPGVPQEPGRGQPDAVPEPPPVGWQCPGCTFINKPTRPGCEMCCRARPEAYQVPASYQPDEEERARLAGEEEALRQYQQRKQQQQEGNYLQHVQLDQRSLVLNTEPAECPVCYSVLAPGEAVVLRECLHTFCRECLQGTIRNSQEAEVSCPFIDNTYSCSGKLLEREIKALLTPEDYQRFLDLGISIAENRSAFSYHCKTPDCKGWCFFEDDVNEFTCPVCFHVNCLLCKAIHEQMNCKEYQEDLALRAQNDVAARQTTEMLKVMLQQGEAMRCPQCQIVVQKKDGCDWIRCTVCHTEICWVTKGPRWGPGGPGDTSGGCRCRVNGIPCHPSCQNCH

Reference: article PMC9853177 (2023)
